The values that follow come from IntAct's records for PubMed 17595294.

B1: Glycine--tRNA ligase (Homo sapiens), P41250 (parent)
chain: MPSPRPVLLRGARAALLLLLPPRLLARPSLLLRRSLSAASCPPISLPAAASRSSMDGAGAEEVLAPLRLAVRQQGDLVRKLKEDKAPQVDVDKAVAELKARKRVLEAKELALQPKDDIVDRAKMEDTLKRRFFYDQAFAIYGGVSGLYDFGPVGCALKNNIIQTWRQHFIQEEQILEIDCTMLTPEPVLKTSGHVDKFADFMVKDVKNGECFRADHLLKAHLQKLMSDKKCSVEKKSEMESVLAQLDNYGQQELADLFVNYNVKSPITGNDLSPPVSFNLMFKTFIGPGGNMPGYLRPETAQGIFLNFKRLLEFNQGKLPFAAAQIGNSFRNEISPRSGLIRVREFTMAEIEHFVDPSEKDHPKFQNVADLHLYLYSAKAQVSGQSARKMRLGDAVEQGVINNTVLGYFIGRIYLYLTKVGISPDKLRFRQHMENEMAHYACDCWDAESKTSYGWIEIVGCADRSCYDLSCHARATKVPLVAEKPLKEPKTVNVVQFEPSKGAIGKAYKKDAKLVMEYLAICDECYITEMEMLLNEKGEFTIETEGKTFQLTKDMINVKRFQKTLYVEEVVPNVIEPSFGLGRIMYTVFEHTFHVREGDEQRTFFSFPAVVAPFKCSVLPLSQNQEFMPFVKELSEALTRHGVSHKVDDSSGSIGRRYARTDEIGVAFGVTIDFDTVNKTPHTATLRDRDSMRQIRAEISELPSIVQDLANGNITWADVEARYPLFEGQETGKKETIEE
partner: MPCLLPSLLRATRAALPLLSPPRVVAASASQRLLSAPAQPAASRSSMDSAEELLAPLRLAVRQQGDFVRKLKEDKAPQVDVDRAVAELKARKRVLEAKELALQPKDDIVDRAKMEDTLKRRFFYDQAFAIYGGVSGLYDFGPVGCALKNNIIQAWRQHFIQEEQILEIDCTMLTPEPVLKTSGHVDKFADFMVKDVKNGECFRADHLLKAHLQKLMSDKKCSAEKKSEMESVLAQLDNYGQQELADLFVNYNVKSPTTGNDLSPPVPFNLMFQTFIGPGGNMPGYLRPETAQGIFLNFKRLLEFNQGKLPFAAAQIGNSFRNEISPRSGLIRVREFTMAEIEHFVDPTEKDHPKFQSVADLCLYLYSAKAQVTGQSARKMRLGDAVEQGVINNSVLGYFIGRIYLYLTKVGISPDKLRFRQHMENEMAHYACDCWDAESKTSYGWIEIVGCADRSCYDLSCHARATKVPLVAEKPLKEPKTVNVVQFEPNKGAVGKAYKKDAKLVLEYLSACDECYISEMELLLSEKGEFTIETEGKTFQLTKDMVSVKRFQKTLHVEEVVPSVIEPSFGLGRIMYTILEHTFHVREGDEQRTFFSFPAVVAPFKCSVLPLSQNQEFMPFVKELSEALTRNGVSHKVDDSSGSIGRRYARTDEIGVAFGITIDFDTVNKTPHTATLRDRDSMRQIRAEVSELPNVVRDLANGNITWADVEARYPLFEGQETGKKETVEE

Variants of B1 are the subject of the experiment. As to conditions: with gars_mouse Gars1, Q9CZD3.
G294R: the “effect of a mutation on the interaction” value is recorded as “disrupting interaction strength”.

For the variant D554N, the “effect of a mutation on the interaction” value was “increasing interaction strength”.

On to S644L, for which the “effect of a mutation on the interaction” value was “increasing interaction strength”.

L183P: the “effect of a mutation on the interaction” value is given as “disrupting interaction strength”.

For the variant G580R, the “effect of a mutation on the interaction” value was “increasing interaction strength”.
